# In publication PMC4638040:
# Positions count from the first letter of the chain named. Numbers in names are those of the source.
# T1: Carboxy-terminus of Hsc70-interacting protein (CHIP), untagged, K30A mutant (human), Q9UNE7
# T1 chain: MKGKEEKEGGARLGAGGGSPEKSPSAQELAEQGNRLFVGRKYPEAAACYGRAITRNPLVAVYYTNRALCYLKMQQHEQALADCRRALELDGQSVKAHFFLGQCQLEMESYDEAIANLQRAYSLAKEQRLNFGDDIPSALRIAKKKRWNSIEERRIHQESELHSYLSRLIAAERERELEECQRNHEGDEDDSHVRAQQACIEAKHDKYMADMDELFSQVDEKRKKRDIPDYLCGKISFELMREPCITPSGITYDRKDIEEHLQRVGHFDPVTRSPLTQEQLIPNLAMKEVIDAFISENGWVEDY
# T2: Carboxy-terminus of Hsc70-interacting protein (CHIP), His-tagged, wild type, Q9UNE7
# T2 chain: T1 chain with A30K
# B1: Carboxy-terminus of Hsc70-interacting protein (CHIP), untagged, K30A mutant, Q9UNE7 1-303 (enzyme)
# chain: T1 chain
# How the values were obtained:
# [1] = target: T1, Carboxy-terminus of Hsc70-interacting …; assay: SEC + other: dynamic light scattering; purified CHIP-K30A; supplemental Fig. S2C, S2D (not shown); conditions: remark: other sources report otherwise
# [2] = target: T2, Carboxy-terminus of Hsc70-interacting …; assay: competition binding assay on microtitre wells (luminometer, anti-CHIP antibody); conditions: chain shown with the change; signal is His-CHIP wt remaining bound to immobilized GST-IRF-1 in the presence of 5 uM peptide (highest dose); lower signal = more competition by the peptide …; parent: est. 0.05; read off a plot
Binder,stoichiometry N [1],response [2] [RLU]
B1,2,–
SGSGGAAAEEVD,–,1.2
